B1: LRP6-GFP [not stated] / FLAG-AP2μ [not stated] (parent complex)
chain 1: APLLLYANRRDLRLVDATNGKENATIVVGGLEDAAAVDFVFSHGLIYWSDVSEEAIKRTEFNKTESVQNVVVSGLLSPDGLACDWLGEKLYWTDSETNRIEVSNLDGSLRKVLFWQELDQPRAIALDPSSGFMYWTDWGEVPKIERAGMDGSSRFIIINSEIYWPNGLTLDYEEQKLYWADAKLNFIHKSNLDGTNRQAVVKGSLPHPFALTLFEDILYWTDWSTHSILACNKYTGEGLREIHSDIFSPMDIHAFSQQRQPNATNPCGIDNGGCSHLCLMSPVKPFYQCACPTGVKLLENGKTCKDGATELLLLARRTDLRRISLDTPDFTDIVLQLEDIRHAIAIDYDPVEGYIYWTDDEVRAIRRSFIDGSGSQFVVTAQIAHPDGIAVDWVARNLYWTDTGTDRIEVTRLNGTMRKILISEDLEEPRAIVLDPMVGYMYWTDWGEIPKIERAALDGSDRVVLVNTSLGWPNGLALDYDEGKIYWGDAKTDKIEVMNTDGTGRRVLVEDKIPHIFGFTLLGDYVYWTDWQRRSIERVHKRSAEREVIIDQLPDLMGLKATNVHRVIGSNPCAEENGGCSHLCLYRPQGLRCACPIGFELISDMKTCIVPEAFLLFSRRADIRRISLETNNNNVAIPLTGVKEASALDFDVTDNRIYWTDISLKTISRAFMNGSALEHVVEFGLDYPEGMAVDWLGKNLYWADTGTNRIEVSKLDGQHRQVLVWKDLDSPRALALDPAEGFMYWTEWGGKPKIDRAAMDGSERTTLVPNVGRANGLTIDYAKRRLYWTDLDTNLIESSNMLGLNREVIADDLPHPFGLTQYQDYIYWTDWSRRSIERANKTSGQNRTIIQGHLDYVMDILVFHSSRQSGWNECASSNGHCSHLCLAVPVGGFVCGCPAHYSLNADNRTCSAPTTFLLFSQKSAINRMVIDEQQSPDIILPIHSLRNVRAIDYDPLDKQLYWIDSRQNMIRKAQEDGSQGFTVVVSSVPSQNLEIQPYDLSIDIYSRYIYWTCEATNVINVTRLDGRSVGVVLKGEQDRPRAVVVNPEKGYMYFTNLQERSPKIERAALDGTEREVLFFSGLSKPIALALDSRLGKLFWADSDLRRIESSDLSGANRIVLEDSNILQPVGLTVFENWLYWIDKQQQMIEKIDMTGREGRTKVQARIAQLSDIHAVKELNLQEYRQHPCAQDNGGCSHICLVKGDGTTRCSCPMHLVLLQDELSCGEPPTCSPQQFTCFTGEIDCIPVAWRCDGFTECEDHSDELNCPVCSESQFQCASGQCIDGALRCNGDANCQDKSDEKNCEVLCLIDQFRCANGQCIGKHKKCDHNVDCSDKSDELDCYPTEEPAPQATNTVGSVIGVIVTIFVSGTVYFICQRMLCPRMKGDGETMTNDYVVHGPASVPLGYVPHPSSLSGSLPGMSRGKSMISSLSIMGGSSGPPYDRAHVTGASSSSSSSTKGTYFPAILNPPPSPATERSHYTMEFGYSSNSPSTHRSYSYRPYSYRHFAPPTTPCSTDVCDSDYAPSRRMTSVATAKGYTSDLNYDSEPVPPPPTPRSQYLSAEENYESCPPSPYTERSYSHHLYPPPPSPCTDSS
chain 2: MIGGLFIYNHKGEVLISRVYRDDIGRNAVDAFRVNVIHARQQVRSPVTNIARTSFFHVKRSNIWLAAVTKQNVNAAMVFEFLYKMCDVMAAYFGKISEENIKNNFVLIYELLDEILDFGYPQNSETGALKTFITQQGIKSQHQTKEEQSQITSQVTGQIGWRREGIKYRRNELFLDVLESVNLLMSPQGQVLSAHVSGRVVMKSYLSGMPECKFGMNDKIVIEKQGKGTADETSKSGKQSIAIDDCTFHQCVRLSKFDSERSISFIPPDGEFELMRYRTTKDIILPFRVIPLVREVGRTKLEVKVVIKSNFKPSLLAQKIEVRIPTPLNTSGVQVICMKGKAKYKASENAIVWKIKRMAGMKESQISAEIELLPTNDKKKWARPPISMNFEVPFAPSGLKVRYLKVFEPKLNYSDHDVIKWVRYIGRSGIYETRC

In this experiment the parent is B1. Nature of the experiment: coIP (FLAG IP, α-GFP blot densitometry).
In the case of chain 1 Y1498A, chain 1 Y1501A, the ratio to parent is 0.58.
Next, chain 1 Y1498A, chain 1 Y1501A, chain 1 Y1503A, chain 1 F1506A: 0.05; chain 1 Y1503A: 0.21; chain 1 Y1503A, chain 1 F1506A: 0.31.
Regarding chain 1 S1560A, the ratio to parent was determined as 0.69.

Values taken from paper PMC12095580, “Wnt signalosome assembly is governed by conformational flexibility of Axin and by the AP2 clathrin adaptor” (Nature Communications, 2025).
